Source: US20210024654A1 (AMPHIVENA THERAPEUTICS, published 2021)

Tests used:
[1] = biological target: cynomolgus CD33 (cynomolgus); assay: flow cytometry KDs on CHO cells, cyno CD33 / human CD33
human CD3 = human CD3 (human, UniProt P07766 23-207); assay: cell-based or functional assay
Chain of human CD3 (P07766 23-207): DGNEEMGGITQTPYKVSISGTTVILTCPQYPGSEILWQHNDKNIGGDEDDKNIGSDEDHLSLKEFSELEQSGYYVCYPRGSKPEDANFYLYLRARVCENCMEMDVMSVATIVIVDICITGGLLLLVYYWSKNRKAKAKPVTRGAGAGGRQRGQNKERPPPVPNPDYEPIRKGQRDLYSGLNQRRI

KD ratio CynoCD33/huCD33 [1]	T cell Proliferation in PBMC EC50 (human CD3) [nM]	Binder
1.9	–	CD33/CD3 tandem diabody 17 (bispecific antibody) DIQMTQSPSSLSASVGDRVTITCRSSTGAVTTSNYANWVQQKPGKAPKALIGGTNKRAPGVPSRFSGSLIGDKATLTISSLQPEDFATYYCALWYSNLWVFGQGTKVEIKGGSGGSQVQLVQSGAEVKKPGESLKISCKGSGYSFTSYWIGWVRQMPGKGLEWMGIIYPGDSDTRYSPSFQGQVTISADKSISTAYLQWSSLKASDTAMYYCARHKRGSDAFDIWGQGTTVTVSSGGSGQSVLTQPPSVSGAPGQRVTISCTGSSSNIGAGYDVHWYQQLPGTAPKLLIYGNSNRPSGVPDRFSGSKSGTSASLAITGLQAEDEADYYCQSYDSSLSDVVFGGGTKLTVLGGSGGSEVQLVESGGGLVQPGGSLRLSCAASGFTFSTYAMNWVRQAPGKGLEWVGRIRSKYNNYATYYADSVKDRFTISRDDSKNSLYLQMNSLKTEDTAVYYCARHGNFGNSYVSYFAYWGQGTLVTVSSAAAGSHHHHHH
3.1	–	CD33/CD3 tandem diabody 18 (bispecific antibody) EVQLVESGGGLVQPGGSLRLSCAASGFTFSTYAMNWVRQAPGKGLEWVGRIRSKYNNYATYYADSVKDRFTISRDDSKNSLYLQMNSLKTEDTAVYYCARHGNFGNSYVSYFAYWGQGTLVTVSSGGSGGSQSVLTQPPSVSGAPGQRVTISCTGSSSNIGAGYDVHWYQQLPGTAPKLLIYGNSNRPSGVPDRFSGSKSGTSASLAITGLQAEDEADYYCQSYDSSLSDVVFGGGTKLTVLGGSGQVQLVQSGAEVKKPGESLKISCKGSGYSFTSYWIGWVRQMPGKGLEWMGIIYPGDSDTRYSPSFQGQVTISADKSISTAYLQWSSLKASDTAMYYCARHKRGSDAFDIWGQGTTVTVSSGGSGGSDIQMTQSPSSLSASVGDRVTITCRSSTGAVTTSNYANWVQQKPGKAPKALIGGTNKRAPGVPSRFSGSLIGDKATLTISSLQPEDFATYYCALWYSNLWVFGQGTKVEIKAAAGSHHHHHH
1	–	CD33/CD3 tandem diabody 14 (bispecific antibody) DIQMTQSPSSLSASVGDRVTITCRSSTGAVTTSNYANWVQQKPGKAPKALIGGTNKRAPGVPSRFSGSLIGDKATLTISSLQPEDFATYYCALWYSNLWVFGQGTKVEIKGGSGGSQVQLVQSGAEVKKPGASVKVSCKASGYTFTSYDINWVRQAPGQGLEWMGWMNPNSGNTGFAQKFQGRVTMTRDTSTSTVYMELSSLRSEDTAVYYCARDRANTDFSYGMDVWGQGTLVTVSSGGSGQSVLTQPPSASGTPGQRVTISCSGSRSNIGSNTVNWYQQLPGTAPKLLIYGNNQRPSGVPDRFSGSKSGSSASLAISGLQSEDEADYYCATWDDSLIGWVFGGGTKLTVLGGSGGSEVQLVESGGGLVQPGGSLRLSCAASGFTFSTYAMNWVRQAPGKGLEWVGRIRSKYNNYATYYADSVKDRFTISRDDSKNSLYLQMNSLKTEDTAVYYCARHGNFGNSYVSYFAYWGQGTLVTVSSAAAGSHHHHHH
1.1	–	CD33/CD3 tandem diabody 15 (bispecific antibody) DIQMTQSPSSLSASVGDRVTITCRSSTGAVTTSNYANWVQQKPGKAPKALIGGTNKRAPGVPSRFSGSLIGDKATLTISSLQPEDFATYYCALWYSNLWVFGQGTKVEIKGGSGGSQVQLVQSGAEVKKPGASVKVSCKASGYTFTSYDINWVRQAPGQGLEWMGWMNPNSGNTGFAQKFQGRVTMTRDTSTSTVYMELSSLRSEDTAVYYCARDRANTDYSFGMDVWGQGTLVTVSSGGSGQSVLTQPPSASGTPGQRVTISCSGSRSNIGSNTVNWYQQLPGTAPKLLIYGNNQRPSGVPDRFSGSKSGTSASLAISGLQSEDEADYYCATWDDSLIGWVFGGGTKLTVLGGSGGSEVQLVESGGGLVQPGGSLRLSCAASGFTFSTYAMNWVRQAPGKGLEWVGRIRSKYNNYATYYADSVKDRFTISRDDSKNSLYLQMNSLKTEDTAVYYCARHGNFGNSYVSYFAYWGQGTLVTVSSAAAGSHHHHHH
1.4	–	CD33/CD3 tandem diabody 16 (bispecific antibody) DIQMTQSPSSLSASVGDRVTITCRSSTGAVTTSNYANWVQQKPGKAPKALIGGTNKRAPGVPSRFSGSLIGDKATLTISSLQPEDFATYYCALWYSNLWVFGQGTKVEIKGGSGGSQVQLVQSGAEVKKPGASVKVSCKASGYTFTSYDINWVRQAPGQGLEWMGWMNPNSGNTGFAQKFQGRVTMTRDTSTSTVYMELSSLRSEDTAVYYCARDRANTDYSLGMDVWGQGTLVTVSSGGSGQSVLTQPPSASGTPGQRVTISCSGSRSNIGSNTVNWYQQLPGTAPKLLIYGNNQRPSGVPDRFSGSKSGTSASLAISGLQSEDEADYYCATWDDSLIGWVFGGGTKLTVLGGSGGSEVQLVESGGGLVQPGGSLRLSCAASGFTFSTYAMNWVRQAPGKGLEWVGRIRSKYNNYATYYADSVKDRFTISRDDSKNSLYLQMNSLKTEDTAVYYCARHGNFGNSYVSYFAYWGQGTLVTVSSAAAGSHHHHHH
33.8	0.038	CD33/CD3 tandem diabody 20 (bispecific antibody) DIQMTQSPSSLSASVGDRVTITCRSSTGAVTTSNYANWVQQKPGKAPKGLIGGTNKRAPGVPSRFSGSLIGTDFTLTISSLQPEDFATYYCALWYSNLWVFGQGTKVEIKGGSGGSQVQLVQSGAEVKKPGASVKVSCKASGYTFTSYYMHWVRQAPGQGLEWMGIINPSGGSTSYAQKFQGRVTMTRDTSTSTVYMELSSLRSEDTAVYYCARDVVPAAIDYYGMDVWGQGTTVTVSSGGSGQSVLTQPPSASGTPGQRVTISCSGSSSNIGSNTVNWYQQLPGTAPKLLIYSDNQRPSGVPDRFSGSKSGSSASLAISGLQSDDEADYYCATWDDSLNGAVFGGGTKLTVLGGSGGSEVQLVESGGGLVQPGGSLRLSCAASGFTFSTYAMNWVRQAPGKGLEWVGRIRSKYNNYATYYADSVKDRFTISRDDSKNSLYLQMNSLKTEDTAVYYCARHGNFGNSYVSWFAYWGQGTLVTVSS
37.3	–	CD33/CD3 tandem diabody 19 (bispecific antibody) DIQMTQSPSSLSASVGDRVTITCRSSTGAVTTSNYANWVQQKPGKAPKALIGGTNKRAPGVPSRFSGSLIGDKATLTISSLQPEDFATYYCALWYSNLWVFGQGTKVEIKGGSGGSQVQLVQSGAEVKKPGASVKVSCKASGYTFTSYYMHWVRQAPGQGLEWMGIINPSGGSTSYAQKFQGRVTMTRDTSTSTVYMELSSLRSEDTAVYYCARDVVPAAIDYYGMDVWGQGTTVTVSSGGSGQSVLTQPPSASGTPGQRVTISCSGSSSNIGSNTVNWYQQLPGTAPKLLIYSDNQRPSGVPDRFSGSKSGSSASLAISGLQSDDEADYYCATWDDSLNGAVFGGGTKLTVLGGSGGSEVQLVESGGGLVQPGGSLRLSCAASGFTFSTYAMNWVRQAPGKGLEWVGRIRSKYNNYATYYADSVKDRFTISRDDSKNSLYLQMNSLKTEDTAVYYCARHGNFGNSYVSYFAYWGQGTLVTVSSAAAGSHHHHHH
